Key:
[1] = biological target: S1 (truncated S1 subunit); experiment: ELISA, coated truncated S1 [cont'd]
[2] = biological target: T1, receptor-binding domain (RBD) of the spike (S) protein of SARS-CoV-2 (SARS-CoV-2, UniProt P0DTC2 319-541); experiment: ELISA, coated RBD [cont'd]
T1 construct: also called soluble RBD

[3] = biological target: T1, receptor-binding domain (RBD) of the …; experiment: ELISA, coated RBD [cont'd]; remark: listed apart in the source
[4] = biological target: S1 (truncated S1 subunit); experiment: ELISA, coated truncated S1 [cont'd]; remark: listed apart in the source
[5] = biological target: T1, receptor-binding domain (RBD) of the …; experiment: ELISA, coated RBD
[6] = biological target: S1 (truncated S1 subunit); experiment: ELISA, coated truncated S1
[7] = biological target: T1, receptor-binding domain (RBD) of the …

B1: HbnC3t1p1_C6 (antibody, V domains shown)
VH: QMQLVQSGPEVKKPGTSVKVSCKASGFTFTSSAVQWVRQARGQRLEWIGWIVVGSGNTNYAQKFQERVTITRDMSTSTAYMELSSLRSEDTAVYYCAAPHCSSTICYDGFDIWGQGTMVTVSS
VL: not shown
EC50 [1]: < 100 µg/mL | EC50 [2]: < 100 µg/mL

B2: MnC2t1p1_C5 (antibody, V domains shown)
VH: EVQLVESGGGLVQPGGSLRLSCAASGFTVSSNYMSWVRQAPGKGLEWVSVIYSGGSTYYADSVKGRFTISRDNSKNTLYLQMNSLRAEDTAVYYCATGARFGESPFDYWGQGTLVTVSS
VL: DIQMTQSPSSVSASVGDRVTITCRASQGISSWLAWYQQKPGKAPKLLIYAASSLQSGVPSRFSGSGSGTDFTLTISSLQPEDFATYYCQQANSFPGTFGQGTKVEIK
EC50 [3]: < 100 µg/mL | EC50 [4]: < 100 µg/mL

B3: CnC2t1p1_D6 (antibody, V domains shown)
VH: EVQLVESGGGLVQPGRSLRLSCTASGFTFGDYAMSWFRQAPGKGLEWVGFIRSKAYGGTTEYAASVKGRFTISRDDSKSIAYLQMNSLKTEDTAVYYCTRVRRLWFGSYYYGMDVWGQGTTVTVSS
VL: not shown
EC50 [5]: < 100 µg/mL | EC50 [6]: < 100 µg/mL

B4: HbnC3t1p1_F4 (antibody, V domains shown)
VH: QVQLVESGGGVVQPGRSLRLSCAATGFTFRRYGMHWVRQAPGKGLEWVAGILFDGSNKYYVDSVKGRFTISRDSSRNTLYLQLNSLRREDTAVYYCAKGGDYEWELLESWGQGTLVTVSS
VL: DIQMTQSPSTVSASVGDRVTITCRASQSIDNWLAWYQEKPGKAPKVLIYKASSLESGVPSRFSGRGSGTEFTLTISSLQPGDFATYYCQHYHSFPLTFGGGTKVDIK
EC50 [1]: < 100 µg/mL | EC50 [2]: < 1000 µg/mL

B5: CnC2t1p1_B4 (antibody, V domains shown)
VH: QVQLVQSGAEVKKPGASVKVSCKASGYTFTSYGISWVRQAPGQGLEWMGWISAYNGNTNYAQKLQGRVTMTTDTSTSTAYMELRSLRSDDTAVYYCARDGELLGWFDPWGQGTLVTVSS
VL: QSALTQPASVSGSPGQSITISCTGTSSDVGSYNLVSWYQQHPGKAPKLMIYEGSKRPSGVSNRFSGSKSGNTASLTISGLQAEDEADYYCCSYAGSSTWVFGGGTKLTVL
EC50 [5]: < 100 µg/mL | EC50 [6]: < 100 µg/mL

B6: CnC2t1p1_E8 (antibody, V domains shown)
VH: QVQLVQSGAEVKNPGASVKVSCKASGYIFTNYYIHWVRQAPGQGLEWVGWIHSLSGGTSYAQKFQGRVTLTRDASIRTAYMELSRLGSDDTALYYCARASVSTITDFDYWGQGTLVAVSS
VL: QSALTQPASVSGSPGQSITISCTGTSGDVGSYNLVSWYQQHPGKAPKLVIYEATKRPSGVSNRFFASKSGNTASLTISGLQAEDEADYYCCSYAGVRTVVFGGGTKLTVL
EC50 [5]: < 100 µg/mL | EC50 [6]: < 100 µg/mL

B7: CnC2t1p1_G6 (antibody, V domains shown)
VH: QVQLVQSGAEVKKPGASVKVSCKASGYIFTNYYIHWVRQAPGQGLEWVGWIHSLSGGTSYAQKFQGRVTLTRDAPIRTAYMELSGLGSDDTAVYYCARASVATITDFDYWGQGTLVAVSS
VL: QSALTQPASVSGSPGQSITISCTGTSGDIGSYNLVSWYQQYPGKAPKLIIYEASKRPSGVSNRFFASKSGNTASLTISGLQAEDEADYYCCSYAGVRTVVFGGGTKLTVL
EC50 [5]: < 100 µg/mL | EC50 [6]: < 100 µg/mL

B8: FnC1t1p2_A5 (antibody, V domains shown)
VH: QVQLVQSGAEVKKPGASVKVSCKASGYTFTSYDINWVRQATGQGLEWMGWMNPNSGNTGYAQKFQGRVTMTRNTSISTAYMELSSLRSEDTAVYYCARATTDCSSTSCWSLDFWSGYYTGGREKIFDYWGQGTLVTVSS
VL: not shown
binding result [5]: no binding | EC50 [6]: > 1000 µg/mL

B9: HbnC2t1p2_D9 (antibody, V domains shown)
VH: QVQLVESGGGVVQPGRSLRLSCAASGFTFSSYGMHWVRQAPGKGLEWVAVIWYDGRNKYYVDSVKGRFTISRDNSKNTLYLQISSLRAEDTAVYYCARAARRPVVTDTMAYYMDVWGKGTTVTVSS
VL: EIVLTQSPATLSLSPGERATLSCRASLSLSSYLAWYQQKPGQAPRLLIYDASNRATGIPARFSGSGSGTDFTLTISSLEPEDFAVYYCQQRSNWPPTWTFGQGTKAEIKR
EC50 [1]: < 1000 µg/mL | EC50 [2]: < 1000 µg/mL

B10: HbnC4t1p1_D5 (antibody, V domains shown)
VH: EVQLVESGGGLVQPGRSLRLSCAASGFTFDDYAMHWVRQAPGKGLEWVSGISWNSGSIGYADSVKGRFTISRDNAKNSLYLQMNSLRAEDTGLYYCAKDINYDSGGYHKNYFDYWGQGTLVTVSS
VL: DIQMTQSPSSLSASVGDRATITCRASQSISSYLNWYQEKPGKAPKLLIYAASSLQSGVPSRFSGSGSGTDFTLTISSLQPEDFATYYCQQSYSNPLTFGGGTKVEIK
EC50 [1]: < 1000 µg/mL | EC50 [2]: < 1000 µg/mL

B11: FnC1t2p1_D4 (antibody, V domains shown)
VH: QVQLVQSGSELKKPGASVKVSCKASGYTFLRFAMNWLRQAPGQGLEWMGWIDTNTGTPTYAQGFTGRFVFSLDTSVSTAYLQISSLKAEDTAVYYCARSLRGANLVPWGQGTLVTVSS
VL: DIQMTQSPSSLSASVGDRVTITCQASQDVSNYLNWYQQQPGKAPKLLIYDAFNLETGVPSRFSGSGSGTDFTFTISSLQPEDIATYYCQQYDNLPLTFGGGTKVEIK
EC50 [5]: < 100 µg/mL | Kd [7]: 200 pM | EC50 [6]: < 100 µg/mL

B12: FnC1t2p1_G5 (antibody, V domains shown)
VH: QVQLVQSGSELKKPGASVKVSCKASGYTFLRFAMNWLRQAPGQGLEWMGWIDTNTGTPTYAQGFTGRFVFSLDTSVSTAYLQISSLKAEDTAVYYCARSLRGANLVPWGQGTLVTVSS
VL: DIQMTQSPSSLSASVGDRVTITCQASQDVSNYLNWYQQQPGKAPKLLIYDAFNLETGVPSRFSGSGSGTDFTFTISSLQPEDIATYYCQQYDNLPLTFGGGTKVEIK
EC50 [1]: < 100 µg/mL | Kd [7]: 100 pM | EC50 [2]: < 100 µg/mL

B13: MnC1t3p1_G9 (antibody, V domains shown)
VH: EVQLLESGGGLVQPGGSLRLSCAASGFTFRNYAMTWVRQAPGKGLEWVSGISDSGDRTYNADSVKGRFSISRDNSKNTLHLQMNSLRAEDTAVYYCALASGSYFGGANYWGQGTLVTVSS
VL: QAVVTQEPSLTVSPGGTVTLTCGSSTGPVTSDHYPYWFQQKPGQAPTTLIYDTNNKHSWTPARFSGSLLGGKAALTLSGAQPEDEAEYYCLLSYTGARVFGGGTKLTVL
EC50 [3]: < 100 µg/mL | EC50 [4]: < 100 µg/mL

B14: HbnC3t1p1_G4 (antibody, V domains shown)
VH: EVQLVESGGGLVQPGGSLRLSCAASGFTVSSNYMSWVRQAPGKGLEWVSVIYSGGSTFYADSVKGRFTISRDNSKNTLYLQMNSLRAEDTAVYYCARDFGDFFFDYWGQGTLVTVSS
VL: EIVLTQSPGTLSLSPGERATLSCRASQSVSSYLAWYQQKPGQAPRLLIYGVSSRATGIPDRFSGSGSGTDFTLTISRLEPEDFAVYYCQQYGSSPRTFGQGTKVEIK
EC50 [1]: < 100 µg/mL | EC50 [2]: < 100 µg/mL

B15: HbnC3t1p2_B10 (antibody, V domains shown)
VH: EVQLVESGGGLVQPGGSLRLSCAASGFIVSSNYMSWVRQAPGKGLEWVSVIYSGGSTFYADSVKGRFTISRDNSKNTLYLQMNSLRAEDTAVYYCARDYGDYFFDYWGQGTLVTVSS
VL: EIVLTQSPGTLSLSPGERATLSCRASQSVSSYLAWYQQKPGQAPRLLISGASSRAAGIPDRFSGSGSGTDFTLTINRLEPEDFAVYYCQQYGSSPRTFGQGTKLEIK
EC50 [1]: < 100 µg/mL | EC50 [2]: < 100 µg/mL

B16: CnC2t1p1_B10 (antibody, V domains shown)
VH: QVQLVQSGAEVKKPGSSVKVSCKASGGTFSSYAISWVRQAPGQGLEWMGGIIPIFGTANYAQKFQGRVTITADKSTSTAYMELSSLRSEDTAVYYCARVSGYDSSGYWGDYWGQGTLVTVSS
VL: EIVLTQSPATLSLSPGERATLSCRASQSVSSYLAWYQQKPGQAPRLLIYDASNRATGIPARFSGSGSGTDFTLTISSLEPEDFAVYYCQQRSNWPPALTFGGGTKVEIK
EC50 [5]: < 100 µg/mL | EC50 [6]: < 100 µg/mL

Reference: patent US20210371503A1 (UNIVERSITY OF COLOGNE, published 2021)
